PMC12466997, “Coming Clean and Avoiding Bubble Trouble–Using Detergents Wisely in the Purification of Membrane Proteins for Cryo-EM Studies” (Biomolecules, 2025)

Tests used:
[1] = target: the molecule itself; assay: cryo-EM structure; MjCorA at 2 mg/mL in 50 mM Tris/HCl pH 8.0, 200 mM NaCl, DDM; initial 3D classification of ~550,000 particles, binned x4, resolution limited to ~6 Å
[2] = target: the molecule itself; assay: cryo-EM 2D class averages; WzzB^ST in DDM; 2D classes and an unmasked 3D reconstruction; smaller oligomer and end-to-end pseudo-D-symmetrical pairs of complexes
[3] = target: the molecule itself; assay: cryo-EM structure; WzzB^ST at 10 mg/mL in 20 mM Tris pH 7.5, 150 mM NaCl, 0.025% DDM; single-particle analysis in RELION 5, ~4.2 Å, C6 ring of dimers; AlphaFold2 model fitted and refined

Protein	stoichiometry N [1]	stoichiometry N [2]	stoichiometry N [3]
Methanocaldococcus jannaschii CorA (natural protein, UniProt Q58439 1-317, looked up, CorA magnesium channel (divalent metal ion transporter) of Methanocaldococcus jannaschii, E. coli codon-optimised, in pET15b; The HA tag is said to precede MjCorA; the His-tag was removed by thrombin; also called MjCorA; McCorA) MITVIAIAKDGSIVEPKLDEISFEDYRLIWIDCYDPKDEELYKLSKKIGISVSDLQIGLDEQEIPRVEEDEDFYLIIYKAPLFEEDITTTSLGIYIKNNLLLTIHSDKIKAIGRLHKLISTKKPRIVFERGIGFLLYHILNEITRSYSRILMNLEDELEELEDKLLAGYDREVMEKILGLRKTLVYFHKSLIANRDVLVLLKRKYLPITTKEDRENFEDLYYDTLQLIDMSATYREVLTSMMDITLSLENIKMNQIMKILTMVTTIFAVPMWITGIYGMNFSYLPLANNPQGFWLVMALMVVIIMIFVYIFRRSGWI	5		
WzzB^ST (natural protein, WzzB^ST, bacterial inner membrane polysaccharide copolymerase (O-antigen chain length regulator); the AlphaFold2 model AF-Q04866-F1 of the full-length protein was fitted into the map; periplasmic domain residues 55-289, TM residues 20-54 and 289-319; source: extraction and purification as previously described [65]; purified, in 20 mM Tris pH 7.5, 150 mM NaCl, 0.025% DDM; copies: 12) MTVDSNTSSGRGNDPEQIDLIELLLQLWRGKMTIIVAVIIAILLAVGYLMIAKEKWTSTAIITQPDAAQVATYTNALNVLYGGNAPKISEVQANFISRFSSAFSALSEVLDNQKEREKLTIEQSVKGQALPLSVSYVSTTAEGAQRRLAEYIQQVDEEVAKELEVDLKDNITLQTKTLQESLETQEVVAQEQKDLRIKQIEEALRYADEAKITQPQIQQTQDVTQDTMFLLGSDALKSMIQNEATRPLVFSPAYYQTKQTLLDIKNLKVTADTVHVYRYVMKPTLPVRRDSPKTAITLVLAVLLGGMIGAGIVLGRNALRSYKPKAL		~4	12
